How the values were obtained:
[1] = target: GABARAP WT (human GABARAP 1-116) (human) (UniProt O95166); experiment: ITC; peptide in the syringe (0.5 mM) titrated into 200 µl of the Atg8 homologue in the cell at a 10 times lower concentration; MicroCal iTC200, 25 °C, stirring at 1000 rpm; single-site binding model; N fixed to 1.0 when the fitting was not convergent due to weak interaction; errors are fitting errors
[2] = target: GABARAPL1 WT (UniProt Q9H0R8); experiment: as above
[3] = target: GABARAPL2 WT (UniProt P60520); experiment: as above
Chain of GABARAPL2 WT (P60520 whole entry): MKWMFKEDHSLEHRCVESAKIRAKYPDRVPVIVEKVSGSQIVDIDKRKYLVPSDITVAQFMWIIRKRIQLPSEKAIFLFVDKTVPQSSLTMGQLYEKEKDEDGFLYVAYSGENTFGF

[4] = target: LC3A WT (UniProt Q9H492); experiment: as above
[5] = target: LC3B WT (rat LC3B 1-120) (rat) (UniProt Q62625); experiment: as above
[6] = target: LC3C WT (UniProt Q9BXW4); experiment: as above
Chain of LC3C WT (Q9BXW4 1-126): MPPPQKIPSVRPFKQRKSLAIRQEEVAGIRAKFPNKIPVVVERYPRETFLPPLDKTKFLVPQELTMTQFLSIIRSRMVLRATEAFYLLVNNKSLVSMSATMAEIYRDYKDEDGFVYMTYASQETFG

[7] = target: Atg8 (1-116) K26P (S. cerevisiae) (UniProt P38182); experiment: ITC; MicroCal iTC200, 25 °C; peptide in the syringe (FAM134B, SEC62, RTN3 0.5 mM; Atg40^234–252 2.0 mM; Atg40^237–252 1.8 mM), Atg8-family protein in the cell at 10 times lower concentration (1.8 mM Atg8 for Atg40^237–252 D243A D247A); 20 mM HEPES pH 6.8, 150 mM NaCl; single-site model; errors are fitting errors
Chain of Atg8 (1-116) K26P (S. cerevisiae) (P38182 1-116 K26P): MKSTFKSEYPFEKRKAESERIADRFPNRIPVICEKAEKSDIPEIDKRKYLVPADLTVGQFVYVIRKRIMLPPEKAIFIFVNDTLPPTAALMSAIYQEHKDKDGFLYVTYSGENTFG

Chain of GABARAPL1 WT (Q9H0R8 whole entry): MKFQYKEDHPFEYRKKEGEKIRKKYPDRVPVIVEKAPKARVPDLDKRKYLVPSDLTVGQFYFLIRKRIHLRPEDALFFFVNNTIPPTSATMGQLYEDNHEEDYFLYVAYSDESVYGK
Chain of GABARAP WT (human GABARAP 1-116) (human) (O95166 1-116): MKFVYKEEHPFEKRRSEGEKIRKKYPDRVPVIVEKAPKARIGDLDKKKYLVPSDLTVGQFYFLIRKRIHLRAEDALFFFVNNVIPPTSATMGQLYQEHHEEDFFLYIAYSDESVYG

FAM134B444-470 L458A peptide
Kd [1]: 2060 nM | stoichiometry N [1]: 0.99 site

FAM134B444-470 WT peptide
Kd [2]: 120 nM | stoichiometry N [2]: 0.97 site | Kd [3]: 300 nM | stoichiometry N [3]: 0.89 site | Kd [4]: 210 nM | stoichiometry N [4]: 0.7 site | Kd [5]: 620 nM | stoichiometry N [5]: 1.08 site | Kd [6]: 1110 nM | stoichiometry N [6]: 0.74 site

Atg40^237–252 peptide (from UniProt Q99325 237-252)
Kd [7]: 570 nM

FAM134B444-470 E456A E462A peptide
Kd [5]: 8200 nM | stoichiometry N [5]: 1.28 site
